The source of these data is US20180362652A1 (Biogen, published 2018).

Experiment [1] concerns the target T1, human BDCA2 (full-length, cell surface) (human, UniProt Q8WTT0 1-213).
T1 construct: also called huBDCA2; surface human BDCA2
T1 sequence: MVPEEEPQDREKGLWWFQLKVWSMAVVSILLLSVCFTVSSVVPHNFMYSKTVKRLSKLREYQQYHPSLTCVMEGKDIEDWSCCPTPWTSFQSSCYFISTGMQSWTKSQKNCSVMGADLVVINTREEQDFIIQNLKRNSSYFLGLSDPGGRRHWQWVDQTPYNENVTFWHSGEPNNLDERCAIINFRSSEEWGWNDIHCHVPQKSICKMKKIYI
The experiment is described as follows: direct binding FACS on surface BDCA2, conditioned medium.

Experiment [2] addresses T2, monomeric huBDCA2 ectodomain (human, UniProt Q8WTT0 45-213).
T2 construct: Prepared by proteolytic cleavage of the purified muIgG2a Fc-huBDCA2 fusion protein (pEAG2423); also called human BDCA2 ectodomain; human BDCA2 ECD
T2 sequence: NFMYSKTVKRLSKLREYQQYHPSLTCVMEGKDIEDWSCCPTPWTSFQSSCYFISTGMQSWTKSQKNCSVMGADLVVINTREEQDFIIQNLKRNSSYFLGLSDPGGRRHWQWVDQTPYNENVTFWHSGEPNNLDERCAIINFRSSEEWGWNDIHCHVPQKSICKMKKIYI
The experiment can be described thus: Octet, mAb on anti-human Fc tips, monomeric huBDCA2 in solution. The procedure: Site-directed mutagenesis was performed using Agilent's QuikChange II mutagenesis kit following the manufacturer's recommended protocol. […] Mutated plasmids were identified by screening for the introduced restriction site changes. The full-length light chain cDNA sequences in the resultant plasmids were confirmed by DNA sequencing. […] Conditioned medium was harvested at 2 days post-transfection. […] Antibodies from conditioned medium from transiently transfected cells were bound to anti-human Fc tips, then monomeric huBDCA2 was flowed over the Octet tips, to examine binding and dissociation.
For orientation: BLI is a label-free optical method that tracks binding on a fibre tip over time.

In experiment [3] the target is T2, monomeric huBDCA2 ectodomain. The experiment is described as follows: Octet, mAb from conditioned medium on anti-human Fc tips, monomeric huBDCA2 in solution. The procedure:
(§1) Backmutation to the unpaired cysteine, i.e., S95C, was constructed by site-directed mutagenesis producing plasmid pYL749. Variants S95T, S95A, and S95V were constructed by site-directed mutagenesis producing plasmids pYL750, pYL751, and pYL752, respectively. The full-length light chain cDNA sequences in the resultant plasmids were confirmed by DNA sequencing. […] Conditioned medium was harvested at 2 days post-transfection. […] Conditioned medium containing the C95 variant mAbs was assayed by Octet for binding to human BDCA2 ectodomain. Antibodies from conditioned medium from transiently transfected cells were bound to anti-human Fc tips, then monomeric huBDCA2 was flowed over the Octet tips, to examine binding and dissociation.

Experiment [4] shares this target. The description is as above. The protocol:
The monomeric huBDCA2 ectodomain was prepared by proteolytic cleavage from the purified muIgG2a Fc-huBDCA2 fusion protein (relevant plasmid: pEAG2423). Antibodies from conditioned medium from transiently transfected cells were bound to anti-human Fc tips, and then monomeric huBDCA2 was flowed over the Octet tips, to examine binding and dissociation.
The source holds these as a separate data set.

In experiment [5] the target is T1, human BDCA2 (full-length, cell surface). The experiment can be described thus: direct binding FACS, conditioned medium on CHO cells co-expressing human BDCA2 and FcεRIγ; column C (midpoint) of the printed 4-P fit, X in ng/ml; A 8.32, B 1, D 102, R^2 0.999. The protocol: (§2) Conditioned medium was assayed by direct binding FACS on stably transfected DG44 CHO cells co-expressing full-length BDCA2 and FcεRIγ cDNAs (human or cynomolgus monkey), (relevant expression vectors are human BDCA2/FcεRIγ: pEAG2456, cyno BDCA2/FcεRIγ: pEAG2668).

Experiment [6] deals with T3, cynomolgus monkey BDCA2 (full-length, cell surface, E73 SNP form) (cynomolgus monkey, UniProt Q8WTT0 1-213 (human entry)).
T3 construct: also called cyno BDCA2; surface cynomolgus monkey BDCA2
T3 chain: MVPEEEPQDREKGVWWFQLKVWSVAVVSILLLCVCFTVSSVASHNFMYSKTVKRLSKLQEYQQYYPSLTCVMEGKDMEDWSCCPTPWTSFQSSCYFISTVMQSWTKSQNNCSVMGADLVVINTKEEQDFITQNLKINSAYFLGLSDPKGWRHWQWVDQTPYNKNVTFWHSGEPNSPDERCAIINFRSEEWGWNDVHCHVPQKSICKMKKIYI
The experiment can be described thus: direct binding FACS, conditioned medium on CHO cells co-expressing cynomolgus BDCA2 and FcεRIγ; column C (midpoint) of the printed 4-P fit, X in ng/ml; A 3.13, B 0.874, D 71.9, R^2 0.998. The procedure: as §2

For experiment [7], the target named is T2, monomeric huBDCA2 ectodomain. The experiment is described as follows: Octet, monomeric huBDCA2. The procedure: as §1
Experiment [8] addresses T1, human BDCA2 (full-length, cell surface). The experiment can be described thus: direct binding FACS, conditioned medium on CHO cells co-expressing human BDCA2 and FcεRIγ; column C (midpoint) of the printed 4-P fit, X in ng/ml; A 6.16, B 0.839, D 115, R^2 0.998. The procedure:
as §2

Experiment [9] concerns the target T3, cynomolgus monkey BDCA2 (full-length, …). The experiment is described as follows: direct binding FACS, conditioned medium on CHO cells co-expressing cynomolgus BDCA2 and FcεRIγ; column C (midpoint) of the printed 4-P fit, X in ng/ml; A 4.01, B 1.09, D 68.9, R^2 0.998. The protocol:
as §2

Experiment [10] deals with T1, human BDCA2 (full-length, cell surface). The experiment is described as follows: direct binding FACS, conditioned medium on CHO cells co-expressing human BDCA2 and FcεRIγ; column C (midpoint) of the printed 4-P fit, X in ng/ml; A 5.67, B 0.857, D 96.6, R^2 0.999. The procedure:
as §2

The target in experiment [11] is T3, cynomolgus monkey BDCA2 (full-length, …). The experiment is described as follows: direct binding FACS, conditioned medium on CHO cells co-expressing cynomolgus BDCA2 and FcεRIγ; column C (midpoint) of the printed 4-P fit, X in ng/ml; A 2.43, B 0.789, D 70.7, R^2 0.999. The protocol:
as §2

Experiment [12] concerns the target T1, human BDCA2 (full-length, cell surface). The experiment can be described thus: direct binding FACS, conditioned medium on CHO cells co-expressing human BDCA2 and FcεRIγ; column C (midpoint) of the printed 4-P fit, X in ng/ml; A 3.85, B 0.622, D 97.2, R^2 0.999. The protocol:
as §2

In experiment [13] the target is T3, cynomolgus monkey BDCA2 (full-length, …). The experiment can be described thus: direct binding FACS, conditioned medium on CHO cells co-expressing cynomolgus BDCA2 and FcεRIγ; column C (midpoint) of the printed 4-P fit, X in ng/ml; A 1.62, B 0.79, D 41.8, R^2 1; the fit is extrapolated: the highest point drawn is at about 4000 ng/ml with MFI about 16, no plateau. The protocol: as §2

Positions count from the first letter of the chain named. Numbers in names are those of the source. Read-outs that look alike come from different tables or passages of the source.

B1: ch24F4 C95T variant (antibody, human IgG1, kappa, V domains shown)
VH: DVKLVESGGGLVKPGGSLKLSCAASGFTFSTYTMSWVRQTPEKRLEWVATISPGDSFGYYYPDSVQGRFTISRDNAKNTLFLQMSSLKSEDTAMYYCTRDIYYNYGAWFAYWGQGTLVTVSA
VL: DIVLTQSPASLAVSLGQRATISCKASQSVDYDGDSYMNWYQQKPGQPPKLLIYAASTLESGVPARFSGSGSGTDFTLNIHPVEEEDAATYYCQQTNEDPRTFGGGTKLEIKR
notes: pYL672 with pEAG2679; conditioned medium of 293E cells
Consider B1, for which the binding result in experiment [1] and in [2] was “binds” each time.

B2: hu24F4 H4/L1 (C95S) (antibody, V domains shown)
VH: DVQLVESGGGLVKPGGSLRLSCAASGFTFSTYTMSWVRQAPGKGLEWVATISPGDSFGYYYPDSVQGRFTISRDNAKNSLYLQMNSLRAEDTAVYYCTRDIYYNYGAWFAYWGQGTLVTVSS
VL: DIQLTQSPSSLSASVGDRVTITCKASQSVDYDGDSYMNWYQQKPGKAPKLLIYAASTLESGVPSRFSGSGSGTDFTLTISSLQPEDFATYYCQQSNEDPRTFGQGTKVEIK
notes: Human IgG1/kappa; also called 24F4-H4/L1 (YL740/YL746); 24F4S
What is called Kd is the constant that tells how readily two partners part at equilibrium. The koff is a measure of how fast the partners let go of each other. The term kon denotes the rate constant with which the complex forms. The term EC50 denotes the concentration needed to bring the measured effect to its halfway point. As for B2, the Kd came out at 548 pM in experiment [3] and 744 pM in [4]. Moreover, the off-rate (koff) in [3] worked out at 0.000398 s⁻¹; in [4], 0.000408 s⁻¹. Besides, the kon in experiment [3] came to 727000 M⁻¹ s⁻¹; in experiment [4] it was 549000 M⁻¹ s⁻¹. Further, the EC50 in experiment [5] was 0.2 µg/mL; in [6], 0.21 µg/mL.

B3: hu24F4 H5/L1 C95T (antibody, human IgG1, V domains shown)
VH: B2 VH with E6Q, S86R, Q114R
VL: B2 VL with S95T
notes: Heavy chain pYL747 with light chain pYL750; human IgG1/kappa; also called H5/L1 C95T variant
For the molecule B3, in experiment [7], the binding result was “binds”.

B4: hu24F4 H5/L1 (antibody, V domains shown)
VH: B2 VH with E6Q, S86R, Q114R
VL: B2 VL
notes: Humanized variant, human IgG1/kappa, conditioned medium of 293E cells; also called H5 series of hu24F4
Take B4: the figures for the EC50 in experiment [8] and in experiment [9] were 0.309 µg/mL and 0.228 µg/mL, respectively.

B5: hu24F4 H6/L1 (antibody, V domains shown)
VH: B2 VH with P53G, D55N, S56N, F57Y, Y60S, Q66K
VL: B2 VL
notes: Humanized variant, human IgG1/kappa, conditioned medium of 293E cells; also called H6 series of hu24F4
As for B5, the EC50 stood at 0.359 µg/mL in experiment [10] and 0.501 µg/mL in experiment [11].

B6: hu24F4 H3/L1 (antibody, V domains shown)
VH: B2 VH with D1E, A49S, T98A
VL: B2 VL
notes: Humanized variant, human IgG1/kappa, conditioned medium of 293E cells; also called H3 series of hu24F4
For the molecule B6, in experiment [4], the Kd stood at 13000 pM, the koff was found to be 0.00586 s⁻¹ and the kon is 452000 M⁻¹ s⁻¹. In experiment [12], this molecule came in with an EC50 of 0.984 µg/mL. The EC50 in experiment [13] is 7.67 µg/mL.
